Laboratory results reported in patent publication US11554097B2, “Recombinant production of hybrid lipid-biopolymer materials that self-assemble and encapsulate agents” (Duke University, priority 2017, dated 2023).
Marks after values point to notes of the source that are not given here.

Tests used:
Format in all cases: physicochemical
[1] = Dynamic and static light scattering of self-assembled M-ELPs; conditions: for Hydrodynamic Radius, Day 0, Rh: Day 0, freshly filtered; for Hydrodynamic Radius, Day 0, Rh / Second Virial Coefficient A2 / Shape Factor, ρ, Rg/Rh: PBS; for Second Virial Coefficient A2 / Shape Factor, ρ, Rg/Rh: full Zimm plots; for Aggregation Number, Nagg, MWparticle/Munimer: partial Zimm plots, Day 0; for hydrodynamic radius (Rh) by DLS: filtered samples in PBS at 25° C.
Experimental: Characterization of myristoylated and non-myristoylated ELPs: Dynamic light scattering (DLS) studies were carried out to investigate the self-assembly of various myristoylated ELPs in aqueous solution. Prior to analysis, samples were prepared in PBS at a concentration of 50 μM, and filtered through a 0.22 μm polyvinylidene fluoride membrane (Durapore) directly into a quartz DLS cell. DLS experiments were conducted in a temperature-controlled DynaPro Microsampler (Wyatt Technologies). Measurements were obtained over a temperature range of 15 to 20° C. using 1° C. steps and at 25° C. 18 acquisitions of 5 s each were collected for every temperature point. Autocorrelation intensities at 15° C. were fitted using the regularization model and then depicted as a population size distribution histogram (FIG. 13) and intensity size distribution (FIG. 14) using Wyatt Dynamics software.
Static light scattering (SLS) studies were carried out to quantify the Rg, Rh, and Nagg of myristoylated ELPs in aqueous solution. Samples were prepared in PBS at concentration ranging from 0.5-5 mg/mL and filtered through a 0.22 μm polyvinylidene fluoride membrane (Durapore) directly into a 10 mm, disposable borosilicate glass tube (Fisher Scientific). Experiments were performed using an ALV/CGS-3 goniometer system (Germany). For M-ELP90A,120 and M-ELP90A,80, as well as for M-ELP90A,40 and M-ELP100V,40 at early time points, measurements were obtained at 25° C. for angles between 30 and 150° C. and made at 5° C. increments with 3 runs of 10 s. Smaller angles (20-45° C.) were used to measure the 40-mer ELPs at later time points, after they had matured to their larger rod-like shape. Full Zimm plots were created by conducting SLS for each construct at different concentrations ranging from 25 μM to 100 μM. These Zimm plots were created using SLS data and ALVStat software after the refractive index increment (dn/dc) was calculated (FIG. 15). These plots provided the second virial coefficient and Rg and from which shape factor was calculated (TABLE 1). Partial Zimm plots were used to calculate Nagg at 1 mg/mL.

[2] = Cryo-TEM imaging of self-assembled structures; conditions: PBS, filtered
Experimental: Cryo-transmission electron microscopy (TEM) experiments were performed at Duke University's Shared Materials Instrumentation Facility and at Thermo Fisher Scientific (Formerly FEI). Lacey holey carbon grids (Ted Pella, Redding, Calif.) were glow discharged in a PELCO EasiGlow Cleaning System (Ted Pella, Redding, Calif.). After filtering the samples, a 3 μL drop (1 mg/mL of each construct) at 25° C. (below the Tt for M-ELP constructs) was deposited onto the grid, blotted for 3 s with an offset of −3 mm, and vitrified in liquid ethane using the Vitrobot Mark III (FEI, Eindhoven, Netherlands). The sample chamber was maintained at 100% relative humidity to prevent sample evaporation. Grids were transferred to a Gatan 626 cryoholder (Gatan, Pleasanton, Calif.) and imaged with an FEI Tecnai G^2 Twin TEM (FEI, Eindhoven, Netherlands), which was operated at 80 keV.

[3] = DLS kinetics study of self-assembly; conditions: 50 μM in PBS, room temperature, after filtering
Experimental: Thus, we wanted to take more frequent light scattering measurements to track their changing size. Larger particles scatter more light, thus, we tracked intensity via DLS to monitor the size of the 40-mer M-ELPs' self-assembly.
The 40-mer M-ELPs were prepared at 50 μM in PBS and filtered directly into the instrument's quartz cell. The instrument was pre-set to room temperature and, immediately after filtering, the sample was measured periodically over 24 h for both constructs and out to 1 week for M-ELP90A,40. While M-ELP90A,40 takes 144-168 h to reach equilibrium (FIG. 17A), M-ELP100V,40 appears to do so more quickly, by 24 h after filtering (FIG. 17B).

[4] = UV-Vis turbidity, temperature-triggered LCST phase transition
Experimental: We investigated the temperature-triggered phase-transition of each construct by recording the optical density of the protein solution at 350 nm as the temperature is ramped up and down on a temperature-controlled UV-Vis spectrophotometer (Cary 300 Bio, Varian Instruments, Palo Alto, Calif.) (FIG. 10-FIG. 12). The transition temperature (T) is defined as the inflection point of the turbidity profile and was calculated as the maximum of the first derivative of OD350 versus temperature, which was determined using Igor Pro software (FIG. 10). Turbidity profiles for each sample were measured in PBS at concentrations between 12.5 and 250 μM. For the non-myristoylated control sample, ELP90A,40, the transition temperatures at these concentrations were well above 80° C. Consequently, their […] values were monitored in 1 M NaCl, which served to reduce the T into a temperature range that is experimentally accessible.
We next used UV-vis spectrophotometry to evaluate whether the lipid-ELP hybrid retained the LCST phase behavior of its parent ELP. The absorbance at 350 nm was monitored as the solution temperature was ramped up and then down at a rate of 1° C./min. […] The transition temperature (Tt) is defined as the inflection point of absorbance versus temperature, calculated as the maximum of the curve's first derivative (FIG. 2D, arrow).

Molecule	Refractive Index Increment dn/dc [1]	Hydrodynamic Radius, Day 0, Rh [1]	Second Virial Coefficient A2 [1]	Shape Factor, ρ, Rg/Rh [1]	Aggregation Number, Nagg, MWparticle/Munimer [1]	morphology of self-assembled structure [2]	time to reach equilibrium of self-assembly [3]	hydrodynamic radius (Rh) by DLS [1]	suppression of Tt by myristoylation ([4]; versus unmyristoylated ELP)	transition temperature (Tt) ([4]; PBS, 12.5 to 250 μM)
M-ELP90A,80: myristoylated ELP, same composition (90% alanine, 10% valine), 80 pentapeptide repeats (SEQ ID NO: 35) (conjugate, N-terminal myristoylation) MGLYASKLFSNLGAGVPGAGVPGVGVPGAGVPGAGVPGAGVPGAGVPGAGVPGAGVPGAGVPGAGVPGAGVPGVGVPGAGVPGAGVPGAGVPGAGVPGAGVPGAGVPGAGVPGAGVPGAGVPGVGVPGAGVPGAGVPGAGVPGAGVPGAGVPGAGVPGAGVPGAGVPGAGVPGVGVPGAGVPGAGVPGAGVPGAGVPGAGVPGAGVPGAGVPGAGVPGAGVPGVGVPGAGVPGAGVPGAGVPGAGVPGAGVPGAGVPGAGVPGAGVPGAGVPGVGVPGAGVPGAGVPGAGVPGAGVPGAGVPGAGVPGAGVPGAGVPGAGVPGVGVPGAGVPGAGVPGAGVPGAGVPGAGVPGAGVPGAGVPGAGVPGAGVPGVGVPGAGVPGAGVPGAGVPGAGVPGAGVPGAGVPGAGVPG	0.1660 cm^3 g^−1	31.2 nm	−5.58 × 10^−9 mol dm^3 g^−2	1.00	48	spherical micelles	–	–	–	–
M-ELP100V,40: myristoylated ELP with 40 repeats of VPGXG where X is 100% valine (SEQ ID NO: 37) (conjugate, N-terminal myristoylation) MGLYASKLFSNLGVGVPGVGVPGVGVPGVGVPGVGVPGVGVPGVGVPGVGVPGVGVPGVGVPGVGVPGVGVPGVGVPGVGVPGVGVPGVGVPGVGVPGVGVPGVGVPGVGVPGVGVPGVGVPGVGVPGVGVPGVGVPGVGVPGVGVPGVGVPGVGVPGVGVPGVGVPGVGVPGVGVPGVGVPGVGVPGVGVPGVGVPGVGVPGVGVPGVGVPG	0.1258 cm^3 g^−1	80.3 nm	–	1.30	201^b	rod-like micelles	≤ 24 h	–	–	–
M-ELP90A,120: myristoylated ELP: Arf2 recognition sequence fused to 120 repeats of VPGXG, X 90% alanine and 10% valine (SEQ ID NO: 34) (conjugate, N-terminal myristoylation) MGLYASKLFSNLGAGVPGAGVPGVGVPGAGVPGAGVPGAGVPGAGVPGAGVPGAGVPGAGVPGAGVPGAGVPGVGVPGAGVPGAGVPGAGVPGAGVPGAGVPGAGVPGAGVPGAGVPGAGVPGVGVPGAGVPGAGVPGAGVPGAGVPGAGVPGAGVPGAGVPGAGVPGAGVPGVGVPGAGVPGAGVPGAGVPGAGVPGAGVPGAGVPGAGVPGAGVPGAGVPGVGVPGAGVPGAGVPGAGVPGAGVPGAGVPGAGVPGAGVPGAGVPGAGVPGVGVPGAGVPGAGVPGAGVPGAGVPGAGVPGAGVPGAGVPGAGVPGAGVPGVGVPGAGVPGAGVPGAGVPGAGVPGAGVPGAGVPGAGVPGAGVPGAGVPGVGVPGAGVPGAGVPGAGVPGAGVPGAGVPGAGVPGAGVPGAGVPGAGVPGVGVPGAGVPGAGVPGAGVPGAGVPGAGVPGAGVPGAGVPGAGVPGAGVPGVGVPGAGVPGAGVPGAGVPGAGVPGAGVPGAGVPGAGVPGAGVPGAGVPGVGVPGAGVPGAGVPGAGVPGAGVPGAGVPGAGVPGAGVPGAGVPGAGVPGVGVPGAGVPGAGVPGAGVPGAGVPGAGVPGAGVPGAGVPGY	0.1515 cm^3 g^−1	22.7 nm	−9.23 × 10^−9 mol dm^3 g^−2	0.98	29	spherical micelles	–	~22 nm	~20 °C	–
ELP90A,120: non-myristoylated control, recognition sequence-ELP grown without NMT (SEQ ID NO: 34) (protein) MGLYASKLFSNLGAGVPGAGVPGVGVPGAGVPGAGVPGAGVPGAGVPGAGVPGAGVPGAGVPGAGVPGAGVPGVGVPGAGVPGAGVPGAGVPGAGVPGAGVPGAGVPGAGVPGAGVPGAGVPGVGVPGAGVPGAGVPGAGVPGAGVPGAGVPGAGVPGAGVPGAGVPGAGVPGVGVPGAGVPGAGVPGAGVPGAGVPGAGVPGAGVPGAGVPGAGVPGAGVPGVGVPGAGVPGAGVPGAGVPGAGVPGAGVPGAGVPGAGVPGAGVPGAGVPGVGVPGAGVPGAGVPGAGVPGAGVPGAGVPGAGVPGAGVPGAGVPGAGVPGVGVPGAGVPGAGVPGAGVPGAGVPGAGVPGAGVPGAGVPGAGVPGAGVPGVGVPGAGVPGAGVPGAGVPGAGVPGAGVPGAGVPGAGVPGAGVPGAGVPGVGVPGAGVPGAGVPGAGVPGAGVPGAGVPGAGVPGAGVPGAGVPGAGVPGVGVPGAGVPGAGVPGAGVPGAGVPGAGVPGAGVPGAGVPGAGVPGAGVPGVGVPGAGVPGAGVPGAGVPGAGVPGAGVPGAGVPGAGVPGAGVPGAGVPGVGVPGAGVPGAGVPGAGVPGAGVPGAGVPGAGVPGAGVPGY	–	–	–	–	–	–	–	6.2 nm	–	–
ELP90A,40: non-myristoylated control sample, 40 repeats (SEQ ID NO: 36) (protein) MGLYASKLFSNLGAGVPGAGVPGVGVPGAGVPGAGVPGAGVPGAGVPGAGVPGAGVPGAGVPGAGVPGAGVPGVGVPGAGVPGAGVPGAGVPGAGVPGAGVPGAGVPGAGVPGAGVPGAGVPGVGVPGAGVPGAGVPGAGVPGAGVPGAGVPGAGVPGAGVPGAGVPGAGVPGVGVPGAGVPGAGVPGAGVPGAGVPGAGVPGAGVPGAGVPG	–	–	–	–	–	–	–	–	–	above 80 °C
M-ELP90A,40: myristoylated ELP, 90% alanine, 10% valine, 40 pentapeptide repeats (SEQ ID NO: 36) (conjugate, N-terminal myristoylation) MGLYASKLFSNLGAGVPGAGVPGVGVPGAGVPGAGVPGAGVPGAGVPGAGVPGAGVPGAGVPGAGVPGAGVPGVGVPGAGVPGAGVPGAGVPGAGVPGAGVPGAGVPGAGVPGAGVPGAGVPGVGVPGAGVPGAGVPGAGVPGAGVPGAGVPGAGVPGAGVPGAGVPGAGVPGVGVPGAGVPGAGVPGAGVPGAGVPGAGVPGAGVPGAGVPG	0.1669 cm^3 g^−1	81.9 nm	−2.30 × 10^−8 mol dm^3 g^−2	1.29	137^b	–	144 to 168 h	–	–	–
